Results published in US20260199447A1 (US Dept. of Health and Human Services, published 2026).

Legend:
[1] = target: CHIKV VLP (chikungunya virus (CHIKV), UniProt Q8JUX5 810-1248; Q8JUX5 326-748)
[2] = target: T1, WEEV Env-pseudotyped lentiviral reporter virus (Western equine encephalitis virus (WEEV), UniProt P13897 798-1236; P13897 320-742); assay: cell-based or functional assay
T1 sequence 1: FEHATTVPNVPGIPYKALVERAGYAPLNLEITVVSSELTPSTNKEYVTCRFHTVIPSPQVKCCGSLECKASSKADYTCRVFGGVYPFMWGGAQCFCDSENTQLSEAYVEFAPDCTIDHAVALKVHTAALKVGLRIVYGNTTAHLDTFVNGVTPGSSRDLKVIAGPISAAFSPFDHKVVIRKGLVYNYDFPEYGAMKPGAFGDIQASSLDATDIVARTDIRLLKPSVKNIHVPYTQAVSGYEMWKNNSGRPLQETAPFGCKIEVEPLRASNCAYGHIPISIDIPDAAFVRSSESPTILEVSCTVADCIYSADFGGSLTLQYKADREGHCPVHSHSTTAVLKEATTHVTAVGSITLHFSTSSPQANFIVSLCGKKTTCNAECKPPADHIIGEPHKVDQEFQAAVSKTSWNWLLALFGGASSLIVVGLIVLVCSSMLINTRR
T1 sequence 2: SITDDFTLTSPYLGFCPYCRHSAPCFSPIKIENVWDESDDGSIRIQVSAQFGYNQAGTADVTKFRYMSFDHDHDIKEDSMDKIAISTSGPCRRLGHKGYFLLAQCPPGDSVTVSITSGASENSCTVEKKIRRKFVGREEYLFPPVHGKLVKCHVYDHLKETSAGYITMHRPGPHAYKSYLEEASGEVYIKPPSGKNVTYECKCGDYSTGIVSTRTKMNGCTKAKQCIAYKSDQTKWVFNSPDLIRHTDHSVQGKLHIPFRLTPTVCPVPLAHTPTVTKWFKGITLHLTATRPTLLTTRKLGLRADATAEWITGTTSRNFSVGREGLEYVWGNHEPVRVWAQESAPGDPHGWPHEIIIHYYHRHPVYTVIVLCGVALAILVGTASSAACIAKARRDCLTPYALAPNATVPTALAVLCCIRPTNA

[3] = target: T2, EEEV Env-pseudotyped lentiviral reporter virus (Eastern equine encephalitis virus (EEEV), UniProt P08768 799-1239; P08768 323-742); assay: cell-based or functional assay
T2 sequence 1: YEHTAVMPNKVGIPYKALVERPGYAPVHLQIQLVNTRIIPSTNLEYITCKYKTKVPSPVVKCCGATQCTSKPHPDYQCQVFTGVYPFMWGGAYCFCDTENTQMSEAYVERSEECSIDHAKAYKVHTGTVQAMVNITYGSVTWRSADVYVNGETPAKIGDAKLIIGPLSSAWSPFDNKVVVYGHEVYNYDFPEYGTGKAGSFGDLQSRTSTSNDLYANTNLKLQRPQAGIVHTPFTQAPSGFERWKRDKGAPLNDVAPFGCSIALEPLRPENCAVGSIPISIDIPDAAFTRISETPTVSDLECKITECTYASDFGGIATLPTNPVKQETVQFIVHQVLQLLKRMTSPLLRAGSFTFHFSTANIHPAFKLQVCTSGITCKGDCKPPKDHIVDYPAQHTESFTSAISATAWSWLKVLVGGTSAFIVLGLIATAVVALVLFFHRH
T2 sequence 2: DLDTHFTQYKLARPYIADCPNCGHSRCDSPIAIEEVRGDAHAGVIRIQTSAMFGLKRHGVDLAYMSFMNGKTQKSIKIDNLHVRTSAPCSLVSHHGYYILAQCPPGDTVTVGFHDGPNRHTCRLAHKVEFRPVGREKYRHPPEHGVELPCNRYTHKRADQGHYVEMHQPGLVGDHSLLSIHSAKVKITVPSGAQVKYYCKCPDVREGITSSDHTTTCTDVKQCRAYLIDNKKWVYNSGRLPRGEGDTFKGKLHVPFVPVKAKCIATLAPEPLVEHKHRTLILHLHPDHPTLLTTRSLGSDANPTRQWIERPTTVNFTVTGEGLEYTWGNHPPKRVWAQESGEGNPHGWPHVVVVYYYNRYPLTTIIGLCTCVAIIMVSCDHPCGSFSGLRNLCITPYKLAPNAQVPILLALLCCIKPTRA

[4] = target: T3, VEEV Env-pseudotyped lentiviral reporter virus (Venezuelan equine encephalitis virus …, UniProt P09592 813-1254; P09592 335-757); assay: cell-based or functional assay
T3 sequence 1: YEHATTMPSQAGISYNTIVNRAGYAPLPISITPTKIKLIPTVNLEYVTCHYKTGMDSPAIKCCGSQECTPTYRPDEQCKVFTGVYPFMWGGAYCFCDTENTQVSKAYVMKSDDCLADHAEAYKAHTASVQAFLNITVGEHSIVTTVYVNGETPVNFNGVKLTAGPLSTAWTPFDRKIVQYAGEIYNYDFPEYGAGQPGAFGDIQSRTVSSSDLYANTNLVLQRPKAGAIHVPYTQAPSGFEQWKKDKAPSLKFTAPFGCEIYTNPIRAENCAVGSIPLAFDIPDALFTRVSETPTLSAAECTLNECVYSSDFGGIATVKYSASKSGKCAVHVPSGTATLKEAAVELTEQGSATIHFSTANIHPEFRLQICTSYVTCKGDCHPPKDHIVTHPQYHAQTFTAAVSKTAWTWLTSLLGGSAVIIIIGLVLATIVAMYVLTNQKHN
T3 sequence 2: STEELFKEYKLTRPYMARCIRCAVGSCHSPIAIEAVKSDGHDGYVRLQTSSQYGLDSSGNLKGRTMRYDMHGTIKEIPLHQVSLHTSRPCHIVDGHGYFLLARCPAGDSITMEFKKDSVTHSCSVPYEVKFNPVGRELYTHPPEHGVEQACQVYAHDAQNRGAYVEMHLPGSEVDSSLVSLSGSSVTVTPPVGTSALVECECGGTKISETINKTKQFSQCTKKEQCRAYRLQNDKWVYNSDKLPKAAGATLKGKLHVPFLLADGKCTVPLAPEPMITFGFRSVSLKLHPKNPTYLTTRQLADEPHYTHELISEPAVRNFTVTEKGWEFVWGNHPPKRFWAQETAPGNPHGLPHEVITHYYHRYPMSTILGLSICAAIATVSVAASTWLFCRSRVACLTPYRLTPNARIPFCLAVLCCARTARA

Sequence of CHIKV VLP (Q8JUX5 810-1248 limits assumed, chain 1 of 2): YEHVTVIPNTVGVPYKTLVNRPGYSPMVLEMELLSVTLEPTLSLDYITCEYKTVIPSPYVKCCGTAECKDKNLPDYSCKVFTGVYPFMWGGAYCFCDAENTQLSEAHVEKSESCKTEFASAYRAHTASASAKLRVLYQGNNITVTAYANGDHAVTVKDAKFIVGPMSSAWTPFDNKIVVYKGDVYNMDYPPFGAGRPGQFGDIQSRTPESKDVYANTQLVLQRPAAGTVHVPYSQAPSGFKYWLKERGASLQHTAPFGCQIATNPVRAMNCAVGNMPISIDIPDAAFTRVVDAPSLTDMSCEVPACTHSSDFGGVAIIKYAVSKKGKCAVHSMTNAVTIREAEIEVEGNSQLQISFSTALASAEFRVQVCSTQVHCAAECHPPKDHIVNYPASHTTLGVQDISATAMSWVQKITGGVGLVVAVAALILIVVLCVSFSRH
Sequence of CHIKV VLP (Q8JUX5 326-748 limits assumed, chain 2 of 2): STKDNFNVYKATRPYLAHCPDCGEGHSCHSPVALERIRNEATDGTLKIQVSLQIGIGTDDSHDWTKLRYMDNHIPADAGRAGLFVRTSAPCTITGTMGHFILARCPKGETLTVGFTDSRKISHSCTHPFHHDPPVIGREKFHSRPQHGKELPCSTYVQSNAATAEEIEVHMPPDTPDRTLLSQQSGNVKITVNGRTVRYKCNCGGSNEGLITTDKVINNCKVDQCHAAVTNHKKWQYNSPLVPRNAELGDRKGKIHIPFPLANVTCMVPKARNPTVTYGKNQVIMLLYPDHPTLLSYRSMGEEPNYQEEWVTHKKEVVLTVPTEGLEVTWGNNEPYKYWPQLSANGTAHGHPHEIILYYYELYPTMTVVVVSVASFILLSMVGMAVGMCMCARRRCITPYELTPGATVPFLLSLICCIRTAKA

B1: SKT05 (antibody, V domains shown)
VH: EVQLVESGAGLVQPGGSLRLSCAASGFTFSDSWMSWVRQSPGKGLEWVGRIKGKPDGETAAYAASVKGRFSISRDDSKNTLYLQMNSLKTEDTAVYYCTRDDRTSCRRGVCYAAFHSWGQGVLVTVSS
VL: DIQMTQSPSSLSASAGDRVTLTCRASQAISFYLAWYQQKPGKAPKRLIYDASELQGGVPSRFSGSGSGTDFTLSINSLQPEDSATYFCLQYDSPPFTFGPGTKVEIKR
EC50 [1]: 0.1 µg/mL | IC80, neutralization of Env-pseudotyped lentiviral reporter virus [2]: 0.07 µg/mL | IC80, neutralization of Env-pseudotyped lentiviral reporter virus [3]: 0.39 µg/mL | IC80, neutralization of Env-pseudotyped lentiviral reporter virus [4]: 0.06 µg/mL
